In data set [1] the target is BonH (Burkholderia gladioli pv. cocovenenans). Briefly: SEC; analytical size exclusion chromatography of the purified protein in solution; conditions in the supplementary information. A general note: Size exclusion chromatography separates by hydrodynamic size, large species first.
The target of data set [2] is BonA_ACP1a (Burkholderia gladioli pv. cocovenenans).
Data set [3] deals with BonA_ACP2a (Burkholderia gladioli pv. cocovenenans).
Data set [4] deals with the molecule itself. Description: SEC; analytical size exclusion chromatography of the purified protein in solution; conditions in the supplementary information.

Molecule BonH (enzyme) gave a stoichiometry N in data set [1] of 3. This molecule had a BonH-catalysed conversion of HMG-BonA ACP1a to the MG-ACP product, by ESMS in data set [2] of 15%.

BonI (enzyme) displayed a BonI-catalysed decarboxylation of MG-BonA ACP2a (made by BonH from HMG-BonA ACP2a) to endo-β-methyl-BonA ACP2a, by ESMS and Ppant ejection in data set [3] of 50%. The molecule also displayed a BonI-catalysed conversion (with BonH) of HMG-BonA ACP1a to the endo-β-methyl-ACP product, by ESMS in data set [2] of 15%.

B1: BonI (enzyme)
chain: MSRPAHFHGSATEMSERVVHLAELEPGIVRITLEDRTHKNAFSDRLLNGIVEAFAEVAANPSWKAVILTGYDTYFCTGGTQDMLLKLSKGEGRFTDFPIYNLPLTCEIPVIAAMQGHAVGGGLALGLFADFVVLSRESVYTANFMKYGFTPGFGSTLVMREKLGLPLAQALLMTAANYRGDELARHGIAFPVLPRAEVAAHALDIARQLADKPRHSLVTLKAHLNAPLRAMLPEVTAREVEMHERTFPHPEVQQRIRALFGS
As for B1, in data set [4], the “stoichiometry N” value was 3.

By stoichiometry N is commonly meant a count of units in the complex or per binding partner.
